{"source": "patent US20120003670A1", "about": "(BLOOD CENTER RESEARCH FOUNDATION, published 2012)", "binders": {"B1": {"name": "wild-type GPIbα (SEQ ID NO:11), full-length, on transfected HEK-293T cells (receptor)", "chain": "HPICEVSKVASHLEVNCDKRNLTALPPDLPKDTTILHLSENLLYTFSLATLMPYTRLTQLNLDRCELTKLQVDGTLPVLGTLDLSHNQLQSLPLLGQTLPALTVLDVSFNRLTSLPLGALRGLGELQELYLKGNELKTLPPGLLTPTPKLEKLSLANNNLTELPAGLLNGLENLDTLLLQENSLYTIPKGFFGSHLLPFAFLHGNPWLCNCEILYFRRWLQDNAENVYVWKQGVDVKAMTSNVASVQCDNSDKFPVYKYPGKGCPTLGDEGDTDLYDYYPEEDTEGDKVRATRTVVKFPTKAHTTPWGLFYSWSTASLDSQMPSSLHPTQESTKEQTTFPPRWTPNFTLHMESITFSKTPKSTTEPTPSPTTSEPVPEPAPNMTTLEPTPSPTTPEPTSEPAPSPTTPEPTSEPAPSPTTPEPTPIPTIATSPTILVSATSLITPKSTFLTTTKPVSLLESTKKTIPELDQPPKLRGVLQGHLESSRNDPFLHPDFCCLLPLGFYVLGLFWLLFASVVLILLLSWVGHVKPQALDSGQGAALTTATQTTHLELQRGRQVTVPRAWLLFLRGSLPTFRSSLFLWVRPNGRVGPLVAGRRPSALSQGRGQDLLSTVSIRYSGHSL", "notes": "also called wild-type control"}, "B2": {"name": "GPIbα D235Y, full-length, on transfected HEK-293T cells (receptor)", "chain": "HPICEVSKVASHLEVNCDKRNLTALPPDLPKDTTILHLSENLLYTFSLATLMPYTRLTQLNLDRCELTKLQVDGTLPVLGTLDLSHNQLQSLPLLGQTLPALTVLDVSFNRLTSLPLGALRGLGELQELYLKGNELKTLPPGLLTPTPKLEKLSLANNNLTELPAGLLNGLENLDTLLLQENSLYTIPKGFFGSHLLPFAFLHGNPWLCNCEILYFRRWLQDNAENVYVWKQGVYVKAMTSNVASVQCDNSDKFPVYKYPGKGCPTLGDEGDTDLYDYYPEEDTEGDKVRATRTVVKFPTKAHTTPWGLFYSWSTASLDSQMPSSLHPTQESTKEQTTFPPRWTPNFTLHMESITFSKTPKSTTEPTPSPTTSEPVPEPAPNMTTLEPTPSPTTPEPTSEPAPSPTTPEPTSEPAPSPTTPEPTPIPTIATSPTILVSATSLITPKSTFLTTTKPVSLLESTKKTIPELDQPPKLRGVLQGHLESSRNDPFLHPDFCCLLPLGFYVLGLFWLLFASVVLILLLSWVGHVKPQALDSGQGAALTTATQTTHLELQRGRQVTVPRAWLLFLRGSLPTFRSSLFLWVRPNGRVGPLVAGRRPSALSQGRGQDLLSTVSIRYSGHSL", "notes": "Some cells were also transfected with GPIbβ and GP-IX; also called single mutation D235Y"}, "B3": {"name": "GPIbα D235Y/M239V, full-length, on transfected HEK-293T cells (receptor)", "chain": "HPICEVSKVASHLEVNCDKRNLTALPPDLPKDTTILHLSENLLYTFSLATLMPYTRLTQLNLDRCELTKLQVDGTLPVLGTLDLSHNQLQSLPLLGQTLPALTVLDVSFNRLTSLPLGALRGLGELQELYLKGNELKTLPPGLLTPTPKLEKLSLANNNLTELPAGLLNGLENLDTLLLQENSLYTIPKGFFGSHLLPFAFLHGNPWLCNCEILYFRRWLQDNAENVYVWKQGVYVKAVTSNVASVQCDNSDKFPVYKYPGKGCPTLGDEGDTDLYDYYPEEDTEGDKVRATRTVVKFPTKAHTTPWGLFYSWSTASLDSQMPSSLHPTQESTKEQTTFPPRWTPNFTLHMESITFSKTPKSTTEPTPSPTTSEPVPEPAPNMTTLEPTPSPTTPEPTSEPAPSPTTPEPTSEPAPSPTTPEPTPIPTIATSPTILVSATSLITPKSTFLTTTKPVSLLESTKKTIPELDQPPKLRGVLQGHLESSRNDPFLHPDFCCLLPLGFYVLGLFWLLFASVVLILLLSWVGHVKPQALDSGQGAALTTATQTTHLELQRGRQVTVPRAWLLFLRGSLPTFRSSLFLWVRPNGRVGPLVAGRRPSALSQGRGQDLLSTVSIRYSGHSL", "notes": "Some cells were also transfected with GPIbβ and GP-IX; also called double mutation D235Y/M239V"}, "B4": {"name": "GPIbα G233V, full-length, on transfected HEK-293T cells (receptor)", "chain": "HPICEVSKVASHLEVNCDKRNLTALPPDLPKDTTILHLSENLLYTFSLATLMPYTRLTQLNLDRCELTKLQVDGTLPVLGTLDLSHNQLQSLPLLGQTLPALTVLDVSFNRLTSLPLGALRGLGELQELYLKGNELKTLPPGLLTPTPKLEKLSLANNNLTELPAGLLNGLENLDTLLLQENSLYTIPKGFFGSHLLPFAFLHGNPWLCNCEILYFRRWLQDNAENVYVWKQVVDVKAMTSNVASVQCDNSDKFPVYKYPGKGCPTLGDEGDTDLYDYYPEEDTEGDKVRATRTVVKFPTKAHTTPWGLFYSWSTASLDSQMPSSLHPTQESTKEQTTFPPRWTPNFTLHMESITFSKTPKSTTEPTPSPTTSEPVPEPAPNMTTLEPTPSPTTPEPTSEPAPSPTTPEPTSEPAPSPTTPEPTPIPTIATSPTILVSATSLITPKSTFLTTTKPVSLLESTKKTIPELDQPPKLRGVLQGHLESSRNDPFLHPDFCCLLPLGFYVLGLFWLLFASVVLILLLSWVGHVKPQALDSGQGAALTTATQTTHLELQRGRQVTVPRAWLLFLRGSLPTFRSSLFLWVRPNGRVGPLVAGRRPSALSQGRGQDLLSTVSIRYSGHSL", "notes": "Some cells were also transfected with GPIbβ and GP-IX; also called single mutation G233V"}, "B5": {"name": "GPIbα G233V/D235Y, full-length, on transfected HEK-293T cells (receptor)", "chain": "HPICEVSKVASHLEVNCDKRNLTALPPDLPKDTTILHLSENLLYTFSLATLMPYTRLTQLNLDRCELTKLQVDGTLPVLGTLDLSHNQLQSLPLLGQTLPALTVLDVSFNRLTSLPLGALRGLGELQELYLKGNELKTLPPGLLTPTPKLEKLSLANNNLTELPAGLLNGLENLDTLLLQENSLYTIPKGFFGSHLLPFAFLHGNPWLCNCEILYFRRWLQDNAENVYVWKQVVYVKAMTSNVASVQCDNSDKFPVYKYPGKGCPTLGDEGDTDLYDYYPEEDTEGDKVRATRTVVKFPTKAHTTPWGLFYSWSTASLDSQMPSSLHPTQESTKEQTTFPPRWTPNFTLHMESITFSKTPKSTTEPTPSPTTSEPVPEPAPNMTTLEPTPSPTTPEPTSEPAPSPTTPEPTSEPAPSPTTPEPTPIPTIATSPTILVSATSLITPKSTFLTTTKPVSLLESTKKTIPELDQPPKLRGVLQGHLESSRNDPFLHPDFCCLLPLGFYVLGLFWLLFASVVLILLLSWVGHVKPQALDSGQGAALTTATQTTHLELQRGRQVTVPRAWLLFLRGSLPTFRSSLFLWVRPNGRVGPLVAGRRPSALSQGRGQDLLSTVSIRYSGHSL", "notes": "Some cells were also transfected with GPIbβ and GP-IX; also called double mutation G233V/D235Y"}, "B6": {"name": "GPIbα G233V/D235Y/M239V, full-length, on transfected HEK-293T cells (receptor)", "chain": "HPICEVSKVASHLEVNCDKRNLTALPPDLPKDTTILHLSENLLYTFSLATLMPYTRLTQLNLDRCELTKLQVDGTLPVLGTLDLSHNQLQSLPLLGQTLPALTVLDVSFNRLTSLPLGALRGLGELQELYLKGNELKTLPPGLLTPTPKLEKLSLANNNLTELPAGLLNGLENLDTLLLQENSLYTIPKGFFGSHLLPFAFLHGNPWLCNCEILYFRRWLQDNAENVYVWKQVVYVKAVTSNVASVQCDNSDKFPVYKYPGKGCPTLGDEGDTDLYDYYPEEDTEGDKVRATRTVVKFPTKAHTTPWGLFYSWSTASLDSQMPSSLHPTQESTKEQTTFPPRWTPNFTLHMESITFSKTPKSTTEPTPSPTTSEPVPEPAPNMTTLEPTPSPTTPEPTSEPAPSPTTPEPTSEPAPSPTTPEPTPIPTIATSPTILVSATSLITPKSTFLTTTKPVSLLESTKKTIPELDQPPKLRGVLQGHLESSRNDPFLHPDFCCLLPLGFYVLGLFWLLFASVVLILLLSWVGHVKPQALDSGQGAALTTATQTTHLELQRGRQVTVPRAWLLFLRGSLPTFRSSLFLWVRPNGRVGPLVAGRRPSALSQGRGQDLLSTVSIRYSGHSL", "notes": "Some cells were also transfected with GPIbβ and GP-IX; also called triple mutation; triple GPIbα mutation"}, "B7": {"name": "GPIbα G233V/M239V, full-length, on transfected HEK-293T cells (GPIbα alone in Table 2) (receptor)", "chain": "HPICEVSKVASHLEVNCDKRNLTALPPDLPKDTTILHLSENLLYTFSLATLMPYTRLTQLNLDRCELTKLQVDGTLPVLGTLDLSHNQLQSLPLLGQTLPALTVLDVSFNRLTSLPLGALRGLGELQELYLKGNELKTLPPGLLTPTPKLEKLSLANNNLTELPAGLLNGLENLDTLLLQENSLYTIPKGFFGSHLLPFAFLHGNPWLCNCEILYFRRWLQDNAENVYVWKQVVDVKAVTSNVASVQCDNSDKFPVYKYPGKGCPTLGDEGDTDLYDYYPEEDTEGDKVRATRTVVKFPTKAHTTPWGLFYSWSTASLDSQMPSSLHPTQESTKEQTTFPPRWTPNFTLHMESITFSKTPKSTTEPTPSPTTSEPVPEPAPNMTTLEPTPSPTTPEPTSEPAPSPTTPEPTSEPAPSPTTPEPTPIPTIATSPTILVSATSLITPKSTFLTTTKPVSLLESTKKTIPELDQPPKLRGVLQGHLESSRNDPFLHPDFCCLLPLGFYVLGLFWLLFASVVLILLLSWVGHVKPQALDSGQGAALTTATQTTHLELQRGRQVTVPRAWLLFLRGSLPTFRSSLFLWVRPNGRVGPLVAGRRPSALSQGRGQDLLSTVSIRYSGHSL", "notes": "also called double mutation G233V/M239V"}, "B8": {"name": "GPIbα M239V, full-length, on transfected HEK-293T cells (receptor)", "chain": "HPICEVSKVASHLEVNCDKRNLTALPPDLPKDTTILHLSENLLYTFSLATLMPYTRLTQLNLDRCELTKLQVDGTLPVLGTLDLSHNQLQSLPLLGQTLPALTVLDVSFNRLTSLPLGALRGLGELQELYLKGNELKTLPPGLLTPTPKLEKLSLANNNLTELPAGLLNGLENLDTLLLQENSLYTIPKGFFGSHLLPFAFLHGNPWLCNCEILYFRRWLQDNAENVYVWKQGVDVKAVTSNVASVQCDNSDKFPVYKYPGKGCPTLGDEGDTDLYDYYPEEDTEGDKVRATRTVVKFPTKAHTTPWGLFYSWSTASLDSQMPSSLHPTQESTKEQTTFPPRWTPNFTLHMESITFSKTPKSTTEPTPSPTTSEPVPEPAPNMTTLEPTPSPTTPEPTSEPAPSPTTPEPTSEPAPSPTTPEPTPIPTIATSPTILVSATSLITPKSTFLTTTKPVSLLESTKKTIPELDQPPKLRGVLQGHLESSRNDPFLHPDFCCLLPLGFYVLGLFWLLFASVVLILLLSWVGHVKPQALDSGQGAALTTATQTTHLELQRGRQVTVPRAWLLFLRGSLPTFRSSLFLWVRPNGRVGPLVAGRRPSALSQGRGQDLLSTVSIRYSGHSL", "notes": "Some cells were also transfected with GPIbβ and GP-IX; also called single mutation M239V"}}, "data": [{"target": "T1, von Willebrand factor (VWF) in plasma of reference standards, controls and normal individuals (human, UniProt P04275 764-2813)", "T1 construct": "In the assays VWF was the multimeric protein in diluted platelet poor plasma; also called PPP (source of VWF); ISTH 2", "test": "FACS on transfected HEK-293T cells, with ristocetin or botrocetin", "method": "(§1) For FACS, about 50 μl of a 1:10 dilution of platelet poor plasma (PPP; source of VWF) in assay buffer was added to the plate and serially diluted 1:2 to final dilution of 1:80. ISTH Lot #3 (GTI; Milwaukee, Wis.) was used as a standard and diluted 1:10 in assay buffer and serially diluted 1:2 to a final dilution of 1:320. The plate was then incubated for one hour at room temperature. After the one-hour incubation, the plate was centrifuged again at 1200 rpm for 5 minutes and the supernatant was discarded.\n(§2) In some experiments, the PPP was diluted in PBS containing 1% BSA and either 1 mg/ml Ristocetin A (American Biochemical & Pharmaceuticals, Ltd.; Marlton, N.J.) or 1 mg/ml Botrocetin (Sigma Aldrich).\nFluorescently labeled antibodies (anti-GPIbα; Blood Research Institute) were diluted to a final concentration of 5 μg/ml in assay buffer. Fluorescently labeled anti-VWF polyclonal was also was diluted to a final concentration of 5 μg/ml in assay buffer and added to transfected cells incubated in PPP. Normal rabbit IgG (NRIgG; Pierce) and AP-1 were added at a concentration of 5 μg/ml to transfected cells as negative and positive controls, respectively. The plate was then incubated in the dark for one hour at room temperature. Assay buffer was added to each well to bring the final volume to 150 μl, and FACS was performed using a BD LSRII System (Becton Dickinson). […]", "values": [{"binder": "B1", "binding result": "binds"}]}, {"target": "T1, von Willebrand factor (VWF) in plasma …", "test": "FACS on transfected HEK-293T cells, ristocetin titration", "method": "as §1, §2\nFluorescently labeled antibodies (anti-GPIbα; Blood Research Institute) were diluted to a final concentration of 5 μg/ml in assay buffer. Fluorescently labeled anti-VWF polyclonal was also was diluted to a final concentration of 5 μg/ml in assay buffer and added to transfected cells incubated in PPP. Normal rabbit IgG (NRIgG; Pierce) and AP-1 were added at a concentration of 5 μg/ml to transfected cells as negative and positive controls, respectively. The plate was then incubated in the dark for one hour at room temperature. Assay buffer was added to each well to bring the final volume to 150 μl, and FACS was performed using a BD LSRII System (Becton Dickinson). Results are shown in VWF:IbCo units.", "values": [{"binder": "B2", "binding result": "binds"}, {"binder": "B3", "binding result": "binds"}, {"binder": "B4", "binding result": "binds"}, {"binder": "B5", "binding result": "binds"}, {"binder": "B6", "binding result": "binds"}, {"binder": "B7", "binding result": "binds"}, {"binder": "B8", "binding result": "binds"}]}]}
